In the supplement of paper PMC10899765:

Tests used:
Details in all cases: 20 nM; 72 h
[1] = system: MCF10A; assay: 5+ nucleoli phenotype percent effect (relative to siNT 0% and siKIF11 100%); higher = more cells with five or more nucleoli
Protocol: (§1)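 After 72 h, cells were fixed and stained with Hoechst and anti-fibrillarin, and nucleoli per nucleus were counted with CellProfiler. Values are plate-adjusted percent effect for the one-nucleolus and 5+ nucleoli phenotypes, normalised to siNT (0%) and to the positive controls siNOL11 or siKIF11 (100%), as the mean of biological triplicates. Percent viability is the nuclei count relative to siNT.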

[2] = system: MCF10A; assay: one-nucleolus phenotype percent effect (relative to siNT 0% and siNOL11 100%); higher = more cells with one nucleolus (ribosome biogenesis inhibition)
Protocol: as §1

[3] = system: MCF10A; assay: percent viability (nuclei count relative to siNT); higher = more viable cells
Protocol: as §1

Row | Sequence | 5+ nucleoli phenotype percent effect [1] | one-nucleolus phenotype percent effect [2] | percent viability [3]
1 | CUGGUUUCACAUGGUGGCUUAG [hsa-miR-29b-2-5p] | 7.64% | -3.17% | 43.4%
2 | UGGGCGAGGGCGGCUGAGCGGC [hsa-miR-6729-5p] | -3.58% | 6.3% | 29%
3 | GUUUGCACGGGUGGGCCUUGUCU [hsa-miR-557] | -30.1% | 34.6% | 47.7%
4 | UAAUGAUUCAUCAGACUCAGAU [hsa-miR-580-5p] | -17.8% | 14% | 32.9%
5 | CGGGCGUGGUGGUGGGGG [hsa-miR-1268a] | 44.8% | -19.1% | 96.6%
6 | UGAUUGUAGCCUUUUGGAGUAGA [hsa-miR-508-3p] | -32% | 23.4% | 54.1%
7 | CUCGGCCGCGGCGCGUAGCCCCCGCC [hsa-miR-4665-3p] | 22% | -15.1% | 75.2%
8 | AAGGGGCAGGGACGGGUGGCCC [hsa-miR-6743-5p] | 0.112% | 1.94% | 29.4%
9 | CUGGGAGAGGGUUGUUUACUCC [hsa-miR-30c-1-3p] | -21.9% | 23.4% | 13.1%
10 | UCUGGUGUAUAGCGUUGCUCA [hsa-miR-7978] | -4.49% | 19.2% | 27.6%
11 | CUGGGAGGUCAAGGCUGCAGU [hsa-miR-1273h-5p] | 11.3% | 11.3% | 38.1%
12 | GAGGGCAGAGCCAGCUUCCUGA [hsa-miR-7843-5p] | 13.7% | 16.5% | 32.5%
13 | GAGGAAACUGAAGCUGAGAGGG [hsa-miR-4496] | 40.4% | -13.7% | 88.3%
14 | UGAGAUGAAGCACUGUAGCUC [hsa-miR-143-3p] | -1.77% | -0.991% | 47.9%
15 | UAGGGGUGGGGGAAUUCAGGGGUGU [hsa-miR-6782-5p] | 1.01% | -3.68% | 26.5%
16 | CGCAUCCCCUAGGGCAUUGGUGU [hsa-miR-324-5p] | 21.4% | -15.6% | 76.6%
17 | UCUGGCUCCGUGUCUUCACUCCC [hsa-miR-149-5p] | -2.69% | 30.7% | 32.7%
18 | UGAGCUGCUGUACCAAAAU [hsa-miR-558] | 0.086% | 6.73% | 65.1%
19 | UGUGACUUCUCCCCUGCCACAG [hsa-miR-6820-3p] | -7.76% | 22.3% | 32.3%
20 | CAGGGAAAUGGGAAGAACUAGA [hsa-miR-5584-5p] | 34.8% | -19.1% | 53.3%
21 | AGCUACAUCUGGCUACUGGGU [hsa-miR-222-3p] | -9.89% | -5.3% | 71.6%
22 | ACCUUCCUCUCCAUGGGUCUUU [hsa-miR-3667-3p] | -21.3% | 18.2% | 32%
23 | UUGGGGGUGAGGUUGGUGUCUGG [hsa-miR-6751-5p] | -13.1% | 13.4% | 7.37%
24 | UCACCCUGCAUCCCGCACCCAG [hsa-miR-3620-3p] | 11.8% | -11.9% | 77%
